Experimental data from US20120034160A1 (AbbVie / Abbott, published 2012).

T1: Recombinant Human IL-17 (human, UniProt Q16552 20-155, limits assumed)
T1 construct: bought reagent
T1 sequence (looked up): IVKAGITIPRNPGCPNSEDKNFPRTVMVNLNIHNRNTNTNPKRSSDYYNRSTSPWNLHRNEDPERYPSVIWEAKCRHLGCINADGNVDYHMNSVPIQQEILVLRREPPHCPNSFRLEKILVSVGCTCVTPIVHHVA


Experiments:
Recombinant Human IL-1β = target: T2, Recombinant Human IL-1β (human, UniProt P01584 117-269); experiment: Biacore SPR; C-terminal VD
T2 construct: bought reagent; also called IL-1B
Experimental: (§1) The BIACORE assay (Biacore, Inc, Piscataway, N.J.) determines the affinity of antibodies or DVD-Ig with kinetic measurements of on-rate and off-rate constants. Binding of antibodies or DVD-Ig to a target antigen (for example, a purified recombinant target antigen) was determined by surface plasmon resonance-based measurements with a Biacore® 1000 or 3000 instrument (Biacore® AB, Uppsala, Sweden) using running HBS-EP (10 mM HEPES [pH 7.4], 150 mM NaCl, 3 mM EDTA, and 0.005% surfactant P20) at 25° C. All chemicals were obtained from Biacore® AB (Uppsala, Sweden) or otherwise from a different source as described in the text. For example, approximately 5000 RU of goat anti-mouse IgG, (Fcγ), fragment specific polyclonal antibody (Pierce Biotechnology Inc, Rockford, Ill.) diluted in 10 mM sodium acetate (pH 4.5) was directly immobilized across a CM5 research grade biosensor chip using a standard amine coupling kit according to manufacturer's instructions and procedures at 25 μg/ml. Unreacted moieties on the biosensor surface were blocked with ethanolamine. Modified carboxymethyl dextran surface in flowcell 2 and 4 was used as a reaction surface. Unmodified carboxymethyl dextran without goat anti-mouse IgG in flow cell 1 and 3 was used as the reference surface. For kinetic analysis, rate equations derived from the 1:1 Langmuir binding model were fitted simultaneously to association and dissociation phases of all eight injections (using global fit analysis) with the use of Biaevaluation 4.0.1 software. Purified antibodies or DVD-Ig were diluted in HEPES-buffered saline for capture across goat anti-mouse IgG specific reaction surfaces. Antibodies or DVD-Ig to be captured as a ligand (25 μg/ml) were injected over reaction matrices at a flow rate of 5 μl/min. The association and dissociation rate constants, kₒₙ (M⁻¹s⁻¹) and koff (s⁻¹) were determined under a continuous flow rate of 25 μl/min. Rate constants were derived by making kinetic binding measurements at different antigen concentrations ranging from 10−200 nM. The equilibrium dissociation constant (M) of the reaction between antibodies or DVD-Igs and the target antigen was then calculated from the kinetic rate constants by the following formula: KD=koff/kₒₙ. Binding was recorded as a function of time and kinetic rate constants are calculated.

Recombinant Human IL-17 = target: T1, Recombinant Human IL-17; experiment: Biacore SPR; N-terminal VD
Experimental: as §1

| Binder | Kd (Recombinant Human IL-1β) | koff (Recombinant Human IL-1β) | kon (Recombinant Human IL-1β) | Kd (Recombinant Human IL-17) | koff (Recombinant Human IL-17) | kon (Recombinant Human IL-17) |
| --- | --- | --- | --- | --- | --- | --- |
| DVD1273 (bispecific antibody, human IgG1, kappa, V1 wt hIgG1, V2 kappa; also called DVD1273H; DVD1273L) heavy: not shown light: EIVLTQSPDFQSVTPKEKVTITCRASQDIGSELHWYQQKPDQPPKLLIKYASHSTSGVPSRFSGSGSGTDFTLTINGLEAEDAGTYYCHQTDSLPYTFGPGTKVDIKRTVAAPDIQMTQSPSSLSASVGDRVTITCRASGNIHNYLTWYQQTPGKAPKLLIYNAKTLADGVPSRFSGSGSGTDYTFTISSLQPEDIATYYCQHFWSIPYTFGQGTKLQITRTVAAPSVFIFPPSDEQLKSGTASVVCLLNNFYPREAKVQWKVDNALQSGNSQESVTEQDSKDSTYSLSSTLTLSKADYEKHKVYACEVTHQGLSSPVTKSFNRGEC | 0.27 nM | 0.00019 s⁻¹ | 690000 M⁻¹ s⁻¹ | 0.2 nM | 2.2e-05 s⁻¹ | 110000 M⁻¹ s⁻¹ |
| DVD1279 (bispecific antibody, human IgG1, kappa, DVD-Ig, outer AB274, inner AB271, linker set 1; V1 wt hIgG1, V2 kappa; also called DVD1279H; DVD1279L) heavy: not shown light: EIVLTQSPDFQSVTPKEKVTITCRASQDIGSELHWYQQKPDQPPKLLIKYASHSTSGVPSRFSGSGSGTDFTLTINGLEAEDAGTYYCHQTDSLPYTFGPGTKVDIKRTVAAPDTVVTQSPAFLSVTPGEKVTITCITSTDIDVDMNWYQQKPDQPPKLLISQGNTLRPGVPSRFSSSGSGTDFTFTISSLEAEDAATYYCLQSDNLPLTFGQGTKLEIKRTVAAPSVFIFPPSDEQLKSGTASVVCLLNNFYPREAKVQWKVDNALQSGNSQESVTEQDSKDSTYSLSSTLTLSKADYEKHKVYACEVTHQGLSSPVTKSFNRGEC | 1.4 nM | 0.00045 s⁻¹ | 320000 M⁻¹ s⁻¹ | 0.12 nM | 2.3e-05 s⁻¹ | 190000 M⁻¹ s⁻¹ |
| DVD1269 (bispecific antibody, human IgG1, kappa, DVD-Ig, outer AB273, inner AB271, linker set 1; V1 wt hIgG1, V2 kappa; also called DVD1269H; DVD1269L) heavy: not shown light: DIQMTQSPSSLSASVGDRVTITCRASSGIISYIDWFQQKPGKAPKRLIYATFDLASGVPSRFSGSGSGTDYTLTISSLQPEDFATYYCRQVGSYPETFGQGTKLEIKRTVAAPDTVVTQSPAFLSVTPGEKVTITCITSTDIDVDMNWYQQKPDQPPKLLISQGNTLRPGVPSRFSSSGSGTDFTFTISSLEAEDAATYYCLQSDNLPLTFGQGTKLEIKRTVAAPSVFIFPPSDEQLKSGTASVVCLLNNFYPREAKVQWKVDNALQSGNSQESVTEQDSKDSTYSLSSTLTLSKADYEKHKVYACEVTHQGLSSPVTKSFNRGEC | 1.1 nM | 0.00043 s⁻¹ | 400000 M⁻¹ s⁻¹ | 0.032 nM | 5e-06 s⁻¹ | 160000 M⁻¹ s⁻¹ |
| DVD1267 (bispecific antibody, human IgG1, kappa, DVD-Ig, outer AB273, inner AB270, linker set 1; V1 wt hIgG1, V2 kappa; also called DVD1267H; DVD1267L) heavy: not shown light: DIQMTQSPSSLSASVGDRVTITCRASSGIISYIDWFQQKPGKAPKRLIYATFDLASGVPSRFSGSGSGTDYTLTISSLQPEDFATYYCRQVGSYPETFGQGTKLEIKRTVAAPDTQVTQSPSSLSASVGDRVTITCITSTDIDVDMNWYQQKPGKPPKLLISQGNTLRPGVPSRFSSSGSGTDFTFTISSLQPEDFATYYCLQSDNLPLTFGQGTKLEIKRTVAAPSVFIFPPSDEQLKSGTASVVCLLNNFYPREAKVQWKVDNALQSGNSQESVTEQDSKDSTYSLSSTLTLSKADYEKHKVYACEVTHQGLSSPVTKSFNRGEC | 1.1 nM | 0.00041 s⁻¹ | 370000 M⁻¹ s⁻¹ | ≤ 0.066 nM | ≤ 1e-05 s⁻¹ | 150000 M⁻¹ s⁻¹ |
| DVD1263 (bispecific antibody, human IgG1, kappa, V1 wt hIgG1, V2 kappa; also called DVD1263H; DVD1263L) heavy: not shown light: DIQMTQSPSSLSASVGDRVTITCRASSGIISYIDWFQQKPGKAPKRLIYATFDLASGVPSRFSGSGSGTDYTLTISSLQPEDFATYYCRQVGSYPETFGQGTKLEIKRTVAAPDIQMTQSPSSLSASVGDRVTITCRASGNIHNYLTWYQQTPGKAPKLLIYNAKTLADGVPSRFSGSGSGTDYTFTISSLQPEDIATYYCQHFWSIPYTFGQGTKLQITRTVAAPSVFIFPPSDEQLKSGTASVVCLLNNFYPREAKVQWKVDNALQSGNSQESVTEQDSKDSTYSLSSTLTLSKADYEKHKVYACEVTHQGLSSPVTKSFNRGEC | 0.17 nM | 0.00015 s⁻¹ | 890000 M⁻¹ s⁻¹ | 0.061 nM | 7.8e-06 s⁻¹ | 130000 M⁻¹ s⁻¹ |
| DVD1265 (bispecific antibody, human IgG1, kappa, V1 wt hIgG1, V2 kappa; also called DVD1265H; DVD1265L) heavy: not shown light: DIQMTQSPSSLSASVGDRVTITCRASSGIISYIDWFQQKPGKAPKRLIYATFDLASGVPSRFSGSGSGTDYTLTISSLQPEDFATYYCRQVGSYPETFGQGTKLEIKRTVAAPDIQMTQSPSSLSASVGDRVTITCRASGNIHNYLTWYQQTPGKAPKLLIYNAKTLADGVPSRFSGSGSGTDYTFTISSLQPEDIATYYCQHFWSIPYTFGQGTKLQITRTVAAPSVFIFPPSDEQLKSGTASVVCLLNNFYPREAKVQWKVDNALQSGNSQESVTEQDSKDSTYSLSSTLTLSKADYEKHKVYACEVTHQGLSSPVTKSFNRGEC | 0.088 nM | 0.0003 s⁻¹ | 3.4e+06 M⁻¹ s⁻¹ | 0.096 nM | 1.1e-05 s⁻¹ | 120000 M⁻¹ s⁻¹ |

The remaining binders from weak to strong by Kd (Recombinant Human IL-1β), led by results:

| Kd (Recombinant Human IL-1β) | koff (Recombinant Human IL-1β) | kon (Recombinant Human IL-1β) | Kd (Recombinant Human IL-17) | koff (Recombinant Human IL-17) | kon (Recombinant Human IL-17) | Binder |
| --- | --- | --- | --- | --- | --- | --- |
| 2.2 nM | 0.00071 s⁻¹ | 320000 M⁻¹ s⁻¹ | 0.11 nM | 1.2e-05 s⁻¹ | 110000 M⁻¹ s⁻¹ | DVD1271 (bispecific antibody, human IgG1, kappa, DVD-Ig, outer AB273, inner AB272, linker set 1; V1 wt hIgG1, V2 kappa; also called DVD1271H; DVD1271L) heavy: not shown light: DIQMTQSPSSLSASVGDRVTITCRASSGIISYIDWFQQKPGKAPKRLIYATFDLASGVPSRFSGSGSGTDYTLTISSLQPEDFATYYCRQVGSYPETFGQGTKLEIKRTVAAPETTVTQSPSSLSASVGDRVTITCITSTDIDVDMNWYQQKPGKPPKLLISQGNTLRPGVPSRFSSSGSGTDFTFTISSLQPEDFATYYCLQSDNLPLTFGQGTKLEIKRTVAAPSVFIFPPSDEQLKSGTASVVCLLNNFYPREAKVQWKVDNALQSGNSQESVTEQDSKDSTYSLSSTLTLSKADYEKHKVYACEVTHQGLSSPVTKSFNRGEC |
| 2.1 nM | 0.00049 s⁻¹ | 230000 M⁻¹ s⁻¹ | 0.16 nM | 2.2e-05 s⁻¹ | 130000 M⁻¹ s⁻¹ | DVD1277 (bispecific antibody, human IgG1, kappa, DVD-Ig, outer AB274, inner AB270, linker set 1; V1 wt hIgG1, V2 kappa; also called DVD1277H; DVD1277L) heavy: not shown light: EIVLTQSPDFQSVTPKEKVTITCRASQDIGSELHWYQQKPDQPPKLLIKYASHSTSGVPSRFSGSGSGTDFTLTINGLEAEDAGTYYCHQTDSLPYTFGPGTKVDIKRTVAAPDTQVTQSPSSLSASVGDRVTITCITSTDIDVDMNWYQQKPGKPPKLLISQGNTLRPGVPSRFSSSGSGTDFTFTISSLQPEDFATYYCLQSDNLPLTFGQGTKLEIKRTVAAPSVFIFPPSDEQLKSGTASVVCLLNNFYPREAKVQWKVDNALQSGNSQESVTEQDSKDSTYSLSSTLTLSKADYEKHKVYACEVTHQGLSSPVTKSFNRGEC |
| 2 nM | 0.00058 s⁻¹ | 280000 M⁻¹ s⁻¹ | 0.1 nM | 2e-05 s⁻¹ | 200000 M⁻¹ s⁻¹ | DVD1281 (bispecific antibody, human IgG1, kappa, DVD-Ig, outer AB274, inner AB272, linker set 1; V1 wt hIgG1, V2 kappa; also called DVD1281H; DVD1281L) heavy: not shown light: EIVLTQSPDFQSVTPKEKVTITCRASQDIGSELHWYQQKPDQPPKLLIKYASHSTSGVPSRFSGSGSGTDFTLTINGLEAEDAGTYYCHQTDSLPYTFGPGTKVDIKRTVAAPETTVTQSPSSLSASVGDRVTITCITSTDIDVDMNWYQQKPGKPPKLLISQGNTLRPGVPSRFSSSGSGTDFTFTISSLQPEDFATYYCLQSDNLPLTFGQGTKLEIKRTVAAPSVFIFPPSDEQLKSGTASVVCLLNNFYPREAKVQWKVDNALQSGNSQESVTEQDSKDSTYSLSSTLTLSKADYEKHKVYACEVTHQGLSSPVTKSFNRGEC |
| 0.15 nM | 0.00011 s⁻¹ | 760000 M⁻¹ s⁻¹ | 0.15 nM | 2.1e-05 s⁻¹ | 140000 M⁻¹ s⁻¹ | DVD1275 (bispecific antibody, human IgG1, kappa, V1 wt hIgG1, V2 kappa; also called DVD1275H; DVD1275L) heavy: not shown light: EIVLTQSPDFQSVTPKEKVTITCRASQDIGSELHWYQQKPDQPPKLLIKYASHSTSGVPSRFSGSGSGTDFTLTINGLEAEDAGTYYCHQTDSLPYTFGPGTKVDIKRTVAAPDIQMTQSPSSLSASVGDRVTITCRASGNIHNYLTWYQQTPGKAPKLLIYNAKTLADGVPSRFSGSGSGTDYTFTISSLQPEDIATYYCQHFWSIPYTFGQGTKLQITRTVAAPSVFIFPPSDEQLKSGTASVVCLLNNFYPREAKVQWKVDNALQSGNSQESVTEQDSKDSTYSLSSTLTLSKADYEKHKVYACEVTHQGLSSPVTKSFNRGEC |
